Assay results taken from a protein production outcome set (Wang et al. 2014).

Assay: label from the status in PepcDB records

| Sequence | protein production |
| --- | --- |
| MLSEQALELIDIVARVGSFTAAANRLHKVPSAVSYAVKQIEEELGVVLFERHHRSVTLTPAGGHFVKQARNLLTQIDEMKRGTQRVANGWQPTLSIALDNIVRADRISVLIADFYRHFHDIELIIRIEVFNGVWEALATGHSDVAIGATTAIPVGGVFQYKDMGDIEWAFLVSKNHPLANIDRPLTDEELRPFPSICLEDTSREIPKRMTWLLENQRRLVVPDWIRAINCFREGLGIGYMPVHLASVFIKAGALVEKQLENPKLTSPCCLAWNADKMSPALAWVLDYLGDTDKLHREWLA | failed |
| RNYNNPVVLCGFAGSTPTGVLAASYIVETLGMHQVAHLISQHIPPVAVFVGGKLRHPFRIYANNSNTVLVAMCEVPISSAHIYEISNTLMNWIDQVGASEIVIMEGSPANGIPEERPVFAVAEKPKLDKFKKAGIQPADSAIIAGMGGGILNECLVRKITGLSFITPTSVDIPDPGAVLSIIEAINKAYNLKIKTDLLEEQVKALDEQIKKIEEQYKELQEKQKEPQSMYG | not failed |
| MAEKTYSGFVAIVGKPNVGKSTLLNNLLGVKVAPISPRPQTTRKRLRGILTEGRRQIVFVDTPGLHKPMDALGEFMDQEVYEALADVNAVVWVVDLRHPPTPEDELVARALKPLVGKVPILLVGNKLDAAKYPEEAMKAYHELLPEAEPRMLSALDERQVAELKADLLALMPEGPFFYPEDYAKSDQTFGEWVAEILREEAMKRLWHEVPYAVATKVEEVAERENGVLYIKAILYVERPSQKAIVIGEGGRKIKEIGQATRKQLEALLGKKVYLDLEVKVYPDWRKDPEALRELGYRSSVG | not failed |
| MAFESAGAGELFLLGRLLFGGVLAFMGLNHFQNAGQMAPYAEAKGLPAPVASVYGSGGLLLVSGVLVILGAYPVIAAGALATFLVASAVMMHNFWAVPDDQMQDEMTQFLKNIALAGGALSLLAVAGTSWPYTVGLSLF | failed |
| MNIREIAAKCSKCGYCTTCPTYRIEGWETVSPRGKIQLALKYVDGEIDVDQKIVKDIFKCSVCGLCQEVCPVELPLIDFWEELRRTLVQKGLAPLSVHRKLREITFRNYNPYSGDQERRGDWADFEIKPAKTLYFAGCTASFRLQNLAKSTASVLEKLGIDFTIAGKNEYCCGSPFLRTGQKDIVERLFEKNYAYWQKMGIERIITSCPGCYRTISLDYPKIAEEKGYEFDIEVVHTVSILDKMGEFEKIDLKATYHDPCHLGRHMGMYEEPRNVIKRLGINFVEMERNREQALCCGAGGGLRSQFPEISFEIGRQRVLEAMETGAEYLITCCPFCEYHLSKSAEKLGNRIKVVDLVEIAEKLISP | failed |
| MQFPSIEDLRARNTMKWTRYGQGVLPLWVAESDFSTCPAVLQAITDAVQREAFGYQPDGSLLSQATAEFYADRYGYQARPEWIFPIPDVVRGLYIAIDHFTPAQSKVIVPTPAYPPFFHLLSATQREGIFIDATGGINLHDVEKGFQAGARSILLCNPYNPLGMVFAPEWLNELCDLAHRYDARVLVDEIHAPLVFDGQHTVAAGVSDTAASVCITITAPSKAWNIAGLKCAQIIFSNPSDAEHWQQLSPVIKDGASTLGLIAAEAAYRYGTDFLNQEVAYLKNNHDFLLHEIPKRIPGAKITPMQATYLMWIDFRDTTIEGSPSEFFIEKAKVAMNDGAWFGEDGTGFCRLNFATSREVLEEAIDRMAKAVSHHT | not failed |
| MVDKGVVNNVDECVEGTDHCHIDAICQNTPRSYKCICKSGYTGDGKHCKDVDECEREDNAGCVHDCVNIPGNYRCTCYDGFHLAHDGHNCLDVDECAEGNGGCQQSCVNMMGSYECHCRDGFFLSDNQHTCIQRPEEGMNCMNKNHGCAHICRETPKGGIACECRPGFELTKNQRDCKLTCNYGNGGCQHTCDDTEQGPRCGCHVKFVLHTDGKTCIETCAVNNGGCDSKCHDAATGVHCSCPVGFMLQPDRKTCKDIDECRLHNGGCDHICRNTVGSFECSCKKGYKLLINERSCQDIDECSFDRTCDHMCVNTPGSFQCLCHRGYLLYGISHCGDVDECSINKGGCRFGCINTPGSYQCTCPAGQGRLHWNGKDCTEPVKCQSSSGASKAMLSCSRSGKKDTCALTCPSRARFLPESENGFTVSCGTPSPKAAAGRAIHPGNSTISNSCHEAAVLPVKQRASFKIKDAKCRLHLRNKGKAEEASGRTPGPGGASCSDCQVTFIHLKCDSSRKGKGRRARTPPGKEVTRLTLELEAEVRAEETTAGCGLTCLRQRMERRLKGSLKMLRKSINQDRFLLRLAGLDYELAHKPGLAAGDRAELVEVCRPGQHRAGTKCVSCPQGTYYHGQTEQCVPCPAGTFQEREGQLSCDLCPGSDAHGPLGATNVTTCAGQCPPGQHSGDGFKPCQPCPRGTYQPEAGRTLCFPCGGGLTTKHEGAVSFQDCDTKVQCSPGHYYNTSIHRCIRCAVGSYQPDFRQNFCTRCPGNTSADFDGSTSVAQCKNRQCGGELGEFTGYIESPNYPGNYPAGVECIWNINPPPKRKILIVVPEIFLPSEDECGDVLVMRKNSSPSSITTYETCQTYERPIAFTARSRKLWINFKTSEANSARGFQIPYVTYDEDYEQLVEDIVRDGRLYASENHQEILKDKKLIKAFFEVLAHPQNYFKYTEKHKEMLPKSFIKLLRSKVSSFLRPYK | failed |
| MSPIDEFTYIKQNKIVYDSNSLIQLYFPIMGSDAMALYDYFVHFFDDGIRRHKFSEVLNHLQYGMPRFQDALVMLTALDLLTVYQATGTYLVKLNQAMSNELFLSNPIYRRLLEKRIGEVAVAELDMKIPKNARDISKKFTDVFSDLGQPKQEVNRSKNVFDLESFKRLMMRDGLRFNNEKDDVLGIYSVSELYHLNWYDTYQLAKQTAINGMIAPQRMKVQQNEGQHIKDNQSFTNNEKVILRESKNDSALVFLEKIKRSRKAVTTSGEKTLLEDLAKMNFLDEVINVMVLYTLNKTKSANLNKAYIMKVANDFAFQNVMTAEDAVLKIRDFSDQKVRTKTETKKKQSNVPEWSNPDYKDEVSPEKEIELEQFKTDALKRLERLGKD | not failed |
| MKATFQVPSITCNHCVDKIEKFVGEIEGVSFIDVSVEKKSVVVEFDAPATQDLIKEALLDAGQEVV | failed |
| MKKSLTLVLVVVSILIFSQTFKLEKVLGFSDISSLAFKDGYLLLGTGNGEIIVYKDGSYYRAFKVHDNRVNEVTFENGFIVSASDDKTVGVTNLETGEIKLLKGHMKGVSSVAVAGSKILSASFDGTVRVWSFPDGGEISSQKLGPSVVQIAAHENRYVVGLANGLALIRDLSNQSFSIPLKAHPEGIKKIVFSENGQLIATCGGNTVKVWNASNGNLVLQYDHVITVNDVAFLENDSLIFVADDYKAVVLNIQKNEVVKSIDAHNNFVLFVSSDDGSIATYGMDKTVKVWNANLELQYSLYGHQLSVNTVALSSDRKFIVSGSDDREILIWNTEKGIAEHRIKALSGVRKLLTVENNIISCLDSNQLKIYNLENGKLVKRIKVGTTSTMDIALQNDRMAVGFYDGSVALFRYPSFEEIWRKDTEHEMIQTIDMNNKFIAFGVSYSDPKDKIGYVEVLSADTGERVFLLEGHRGNVNAVKFAGDFLVSGGEDGKVILWNLDTGSKVKEIYLNEPVSSLFVDEKELFVGTWNGSIKIFAFPDLTLKTSLKASDQKIGHLIKVGNHLVVPCGDGKIRILVEK | failed |
| MASQQEKKQLDERAKKGETVVPGGTGGKSFEAQQHLAEGRSRGGQTRKEQLGTEGYQQMGRKGGLSTGDKPGGEHAEEEGVEIDESKFRTKT | failed |
| MLKGKVALVTGASRGIGRAIAKRLANDGALVAIHYGNRKEEAEETVYEIQSNGGSAFSIGANLESLHGVEALYSSLDNELQNRTGSTKFDILINNAGIGPGAFIEETTEQFFDRMVSVNAKAPFFIIQQALSRLRDNSRIINISSAATRISLPDFIAYSMTKGAINTMTFTLAKQLGARGITVNAILPGFVKTDMNAELLSDPMMKQYATTISAFNRLGEVEDIADTAAFLASPDSRWVTGQLIDVSGGSCL | not failed |
| MKTSRECFSSAGGSPMIRATSARSPPVPQSALPIGSLLSAPRPAFTETEAQGLARTHFGLDGTALPLTSERDQNFRLATPRGAFVLKIANAAEPRGVTECQTLALLHLEAVAPGLPVPRVIRTREGAPWTELAGGNLLRLLTWVEGEPLWRARRGAAQRRAVGLCLGGIAAALADFSHPSADHELLWDIRHAARLRALLPAIPDARTAVLAERVLDRFETAVAPRLADLPWQVVHNDMNPHNIMVDPANADRVAGVIDFGDLVRTARVCDLAVAGSYQVDPGDPAGTLADLVAGYHAANPLRPEEVELLPDLVAARMVTTIAIASARAAQQPDNAPYILRNLPASAAGLEALTALAPGAAAAALLRATEAA | failed |
| MDLGYLKSKESGFIAGMILCTAFMGSSFPSGKYLISEEAMPAFYAGGWRFLLAGGLILAFCAAKDGLGAILPASGGSVIKGALFVLVVGCLQTAGTMGFLNLALTTLSASMASLLLFTNPLWVAILAHFALGETLSWHKVVALVCGILGVSLCLGGGADHGLGGIVIALAGSLCWALCTLISKKHKFDKSVFVFTGWQLTLGALVMLAISKLSGEAYDIDRITGWGIACFIWLVGPASIGSFGLWFTALSRRGATVTSSYLFLVPLFSAVFSMMVLGEAVSPHSLIGGAIIIVALWLINLPQTVSAVWRERLGL | failed |
| GSPLLAPAFEPSLGPPPEGAPPTIEAWFSFRSPYSWLFMPRIRHLAQAYGATLELRPILPMVMRGLAVPRIKTIYITLDCKREAERVGLPFGRIVDPVGAGAERALAVLHHAMALGLGEQFAELGLKAAFADGIALAEDEGLYGVARRAGLTDAQTAAALADDSWRQRAETNRAALLEAGLWGAPTFRITGHQAHWGQDRLYMLEEDLRAAMQGAAAPR | failed |
| EAGTGRPVLILHGGGGPATVAPLAGHLARTAHTLVPTHPGWNGTPRPDRFAGVDDIALAYLRHLQDRGLRDVLVVGSSLGGWIGAELAARDDLGIITGLVLIDAVGIQVDGEPVRDFFALDARGVAEYSYHDPDRFYVDPADIPAGQLAARQANMATMRALAGDPYMHDPTLRGRLARVPVPTLVLWGESDRIVTPAYGRAYTDAFPDARFEVIPKAGHLPQLEQPEATFAAIDAYLAR | failed |
| MVDPNEHKKAVKTQQQDDEQTFEAVARAWHTDNKKWSESHAERILKSLSDNIFPAIGGTHVANLKTRDLLTPIKSVERSGRLEVAKRLKQRVTAIMTYAVQNGLIDYNPAQDMAGAIMPGKVEHRLEHHHHHH | failed |
| MSLSLIKVGLVGIGAQMQENLLPSLLQMQDIRIVAACDSDLERARRVHRFISDIPVLDNVPAMLNQVPLDAVVMAGPPQLHFEMGLLAMSKGVNVFVEKPPCATLEELETLIDAARRSDVVSGVGMNFKFARPVRQLREMTQVDEFGETLHIQLNHYANKPRAPLWGLDSTLRSFLLAQAIHTIDLAITFGDGELRRVQSSVQRHDDALIVRADMAFSSGATASLLAGTSFPYFEFDMKLVSSSSTLVELDNLWNITLHEPEHATRPTGAAKRWRGAWQPGPLDSGYERSGYHGELHQFFQAIREHRRFEADFASLLPTYRVIEEICSADAVAQGLQNAHSRIRTGIESLSEGHHHHHH | not failed |
| MNLKAMDAILEDCCDIVCSDYLPSAMIKSMCIVAERINNLNKAVSLFTSNPAKAVGIYDERGSIKENKKADLVLVDIDSEYPKVVNTIVNGKTVYKRELEHHHHHH | failed |
| MNNENPLVSILIPVYNREKYIGEAIESAINQTYKNIEVIIVDNCSTDNTWKILQDYQCKDKRIHIFQNEKNLGPVYNWIECFKRAKGVYSKILWSDDWMSLDFVENALSAFNEDISFVISAQQIITNDKEILSNVAYLKDRYSQREYLENALLYNKYNFPLSPGCAIFRTKDVLNNFIVDIPNSDSLDSKKNGAGNDLYLFLKIALHYPYIGVVANSVSYFRAHKESFSVASDLNLYYEWAKVDFINSELRDSYFISAKKMLLFKFSVKNKHFRNICKSLSYNKYILQAVFRLLLIRILEHHHHHH | failed |
| AAQGFVFNLDNPIFKDRRVREALSLLWDFDWINRRVMRNFYVREQSYFPKSDMAATELPTPAELKILEPLRGQVPDEVFTTVYQPPKTDGSGYIRDKQLQALKLLAEAGWHPKNNKLVNAAGEPMVFSFLDGQGGFDRLILPFKRTLAQIGITLDFLRIDSAQYINRLNARDYDMIVVSLPKNGNPIISPGRELYNLYGSQSATEVGSSNAMVLRNPAVDTLIDGLVSANTRNDMVLYARALDRVLQWGYYMIPNYYSK | failed |
